Assay results from article PMC4879557, “HPTLC-aptastaining – Innovative protein detection system for high-performance thin-layer chromatography”.

T1: beta-lactoglobulin (UniProt P02754 17-178)
T1 sequence: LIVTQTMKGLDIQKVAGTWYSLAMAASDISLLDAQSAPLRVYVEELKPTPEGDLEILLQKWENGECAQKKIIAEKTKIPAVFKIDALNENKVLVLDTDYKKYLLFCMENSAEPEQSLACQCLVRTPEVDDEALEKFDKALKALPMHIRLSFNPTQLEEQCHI


Tests used:
lysozyme [1] = molecular target: T2, lysozyme (hen (egg white), UniProt P00698 19-147); experiment: HPTLC-aptastaining; no obvious differences to LysApt5; White wine mimicking buffer: 1.5 mM KCl, 14.5 mM K acetate, 3.5 mM Mg acetate, 1.5 mM Ca acetate, 1 mM NaH2PO4, 4 mM KH2PO4, 11.5% (v/v) ethanol, pH 3.1; room temperature; plates blocked with 0.6% Tween 20; aptamer 5 nM (silica gel, cellulose) or 0.5 nM (RP); settings: protein: native; label: 5' ATTO 550
lysozyme [2] = molecular target: T2, lysozyme; experiment: HPTLC-aptastaining; RP-18W and silica gel plates; White wine mimicking buffer: 1.5 mM KCl, 14.5 mM K acetate, 3.5 mM Mg acetate, 1.5 mM Ca acetate, 1 mM NaH2PO4, 4 mM KH2PO4, 11.5% (v/v) ethanol, pH 3.1; room temperature; plates blocked with 0.6% Tween 20; aptamer 5 nM (silica gel, cellulose) or 0.5 nM (RP); settings: protein: native; label: 5' ATTO 550
beta-lactoglobulin = molecular target: T1, beta-lactoglobulin; experiment: as above; settings: protein: native; chain copies: 2; label: 5' ATTO 550

T2 sequence (P00698 19-147): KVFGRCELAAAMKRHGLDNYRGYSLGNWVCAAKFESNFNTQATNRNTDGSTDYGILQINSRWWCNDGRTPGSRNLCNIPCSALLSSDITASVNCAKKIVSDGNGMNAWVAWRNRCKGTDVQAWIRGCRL

Binder	binding result (lysozyme [1])	binding result (lysozyme [2])	binding result (beta-lactoglobulin)
5'-ATTO 550-LysApt4 (ssDNA) DNA: CATCCGTCACACCTGCTCTTGTTATTTTTTGTTGATGTAGGTTTGATGATGTATTTCCGGTGTTCGGTCCCGTATC	binds		
5'-ATTO 550-LysApt5 (ssDNA) DNA: CATCCGTCACACCTGCTCCCTGCTAGAATTTTTCATGATCTTGCTGTATTTCTATTATGGTGTTCGGTCCCGTATC		binds	no binding
